The source of these data is paper PMC9168836, “Clamping of DNA shuts the condensin neck gate” (Proceedings of the National Academy of Sciences of the …, 2021).

B1: Ycs4 (natural protein, S. cerevisiae)
chain: MSGFSLSEYLTKFQTTDRESYPRLQDPSRELNVIIDQLAVSPEQIDASPDSLEALIDLCHDFPHLTPKLQTQLSYLISSSLSNLSKDIKANLSSNVNFTEIGGLIPQWKRHLEEYGYLIQVLLTFLQDELHKVSSQSTNLNRSAKNSKNDSANVELFKRDCNQMENLLESITKLLEINLSKIFQTTPEKDLFIGLFTRPLFVLLEIEPVTKVSSLKMFIQRILAMCVKNHGQSSSIQSSLMTNLTYFLHLSVFNAELLKLLNDEYNYPQLTEDILKEISTRVFNAKDTTGPKAISNFLIKLSELSPGIMLRQMNLVITLLNNSSITLRCSVVEACGNIVAELAQDPQTMEHYKQQIAVLIELLEERFQDSNPYVRTKAIQGCSKICDLSSKFNKSKAKFTSLAVRSLQDRSSLVRRNSVKLLSKLLLKHPFKAIHGSQLRLSEWEEYLKGSESQLNSTLKKVESQETLNDTIERSLIEEEVEQDEGQCRTELEGSFNKSAELSRIENEVENINATNTSVLMKLKLMIVYYKDAISFIKEIHKSIELISNLLFSKNRNEVLESMDFLVLADAFDIELSEFGIKKMLHLVWMKGTNDEGTSISVHLIECYKQLFLTAPDSCNMQEKAAHIAKNLINLSIGASIADLASLEQLLGMMYEQKLIDQHVINILWAIYNSASKASMQKEQNVNNRDSEKGFSKEQIHGSIIILGMLSLADNEIALKGLESLLNIGLGAVGLKDLTLCRYSCLALERMVPKRSTIITKAINQELEDVAVKKLYAIIINYTKDNEYYPMCEQALSALFTISSKPDILATDLIREKTMMTFGKPEEEDSILSLEQSSRVVSLSQLLFIVGQVAIKTLVYLEKCEAEFKKRKIEAETRNGKVKNQGADVTNTTQDNGGDKELEMIGGTNEDDFTDAIQFVKENELLFGEKSILGKFCPIVEEIVSNSSRFSDPMLQRTATLCLEKLMCLSSKYCEKSLPLLITVMEKSPDPTIRSNAVLGLGDMAVCFNNLVDENTDYLYRRLHDENLMVQRTCLMTVTFLILAGQVKVKGQLGEMAKCLDNPDQGISDMCRLFFTELASKDNAIYNGFIDIFSNLSSDDLLGKESFKKIIKFLLTFIDKERHQKQLNEKLVGRLRKCETQKQWDDIAFVLNNLPYKNEDVTALLEQGFKVVSAKE
notes: Ycs4, HAWK (HEAT repeat) subunit of S. cerevisiae condensin
B2: Smc2 (natural protein, budding yeast (S. cerevisiae))
chain: MKVEELIIDGFKSYATRTVITDWDPQFNAITGLNGSGKSNILDAICFVLGIASMSTVRASSLQDLIYKRGQAGVTKASVTIVFDNTDKSNSPIGFTNSPQISVTRQVVLGGTSKYLINGHRAPQQSVLQLFQSVQLNINNPNFLIMQGKITKVLNMKPSEILSLIEEAAGTKMFEDRREKAERTMSKKETKLQENRTLLTEEIEPKLEKLRNEKRMFLEFQSTQTDLEKTERIVVSYEYYNIKHKHTSIRETLENGETRMKMLNEFVKKTSEEIDSLNEDVEEIKLQKEKELHKEGTISKLENKENGLLNEISRLKTSLSIKVENLNDTTEKSKALESEIASSSAKLIEKKSAYANTEKDYKMVQEQLSKQRDLYKRKEELVSTLTTGISSTGAADGGYNAQLAKAKTELNEVSLAIKKSSMKMELLKKELLTIEPKLKEATKDNELNVKHVKQCQETCDKLRARLVEYGFDPSRIKDLKQREDKLKSHYYQTCKNSEYLKRRVTNLEFNYTKPYPNFEASFVHGVVGQLFQIDNDNIRYATALQTCAGGRLFNVVVQDSQTATQLLERGRLRKRVTIIPLDKIYTRPISSQVLDLAKKIAPGKVELAINLIRFDESITKAMEFIFGNSLICEDPETAKKITFHPKIRARSITLQGDVYDPEGTLSGGSRNTSESLLVDIQKYNQIQKQIETIQADLNHVTEELQTQYATSQKTKTIQSDLNLSLHKLDLAKRNLDANPSSQIIARNEEILRDIGECENEIKTKQMSLKKCQEEVSTIEKDMKEYDSDKGSKLNELKKELKLLAKELEEQESESERKYDLFQNLELETEQLSSELDSNKTLLHNHLKSIESLKLENSDLEGKIRGVEDDLVTVQTELNEEKKRLMDIDDELNELETLIKKKQDEKKSSELELQKLVHDLNKYKSNTNNMEKIIEDLRQKHEFLEDFDLVRNIVKQNEGIDLDTYRERSKQLNEKFQELRKKVNPNIMNMIENVEKKEAALKTMIKTIEKDKMKIQETISKLNEYKRETLVKTWEKVTLDFGNIFADLLPNSFAKLVPCEGKDVTQGLEVKVKLGNIWKESLIELSGGQRSLIALSLIMALLQFRPAPMYILDEVDAALDLSHTQNIGHLIKTRFKGSQFIVVSLKEGMFANANRVFRTRFQDGTSVVSIM
notes: Smc2, SMC subunit of budding yeast (S. cerevisiae) condensin; only the head domain and proximal coiled coil (neck) are resolved in the maps; Subunit of the wild-type condensin tetramer and pentamer used for cryo-EM

Common to all, as to details: both partners purified
Assay [1] deals with T1, Smc4-3xStrepII (budding yeast (S. cerevisiae), UniProt Q12267 1-1418).
T1 construct: Smc4, SMC subunit of budding yeast (S. cerevisiae) condensin; only the head domain, proximal coiled coil and residues 126-144 are resolved in the maps; The tag's end is read from the plasmid's name SMC4-3xStrepII; also called Scm4
T1 sequence: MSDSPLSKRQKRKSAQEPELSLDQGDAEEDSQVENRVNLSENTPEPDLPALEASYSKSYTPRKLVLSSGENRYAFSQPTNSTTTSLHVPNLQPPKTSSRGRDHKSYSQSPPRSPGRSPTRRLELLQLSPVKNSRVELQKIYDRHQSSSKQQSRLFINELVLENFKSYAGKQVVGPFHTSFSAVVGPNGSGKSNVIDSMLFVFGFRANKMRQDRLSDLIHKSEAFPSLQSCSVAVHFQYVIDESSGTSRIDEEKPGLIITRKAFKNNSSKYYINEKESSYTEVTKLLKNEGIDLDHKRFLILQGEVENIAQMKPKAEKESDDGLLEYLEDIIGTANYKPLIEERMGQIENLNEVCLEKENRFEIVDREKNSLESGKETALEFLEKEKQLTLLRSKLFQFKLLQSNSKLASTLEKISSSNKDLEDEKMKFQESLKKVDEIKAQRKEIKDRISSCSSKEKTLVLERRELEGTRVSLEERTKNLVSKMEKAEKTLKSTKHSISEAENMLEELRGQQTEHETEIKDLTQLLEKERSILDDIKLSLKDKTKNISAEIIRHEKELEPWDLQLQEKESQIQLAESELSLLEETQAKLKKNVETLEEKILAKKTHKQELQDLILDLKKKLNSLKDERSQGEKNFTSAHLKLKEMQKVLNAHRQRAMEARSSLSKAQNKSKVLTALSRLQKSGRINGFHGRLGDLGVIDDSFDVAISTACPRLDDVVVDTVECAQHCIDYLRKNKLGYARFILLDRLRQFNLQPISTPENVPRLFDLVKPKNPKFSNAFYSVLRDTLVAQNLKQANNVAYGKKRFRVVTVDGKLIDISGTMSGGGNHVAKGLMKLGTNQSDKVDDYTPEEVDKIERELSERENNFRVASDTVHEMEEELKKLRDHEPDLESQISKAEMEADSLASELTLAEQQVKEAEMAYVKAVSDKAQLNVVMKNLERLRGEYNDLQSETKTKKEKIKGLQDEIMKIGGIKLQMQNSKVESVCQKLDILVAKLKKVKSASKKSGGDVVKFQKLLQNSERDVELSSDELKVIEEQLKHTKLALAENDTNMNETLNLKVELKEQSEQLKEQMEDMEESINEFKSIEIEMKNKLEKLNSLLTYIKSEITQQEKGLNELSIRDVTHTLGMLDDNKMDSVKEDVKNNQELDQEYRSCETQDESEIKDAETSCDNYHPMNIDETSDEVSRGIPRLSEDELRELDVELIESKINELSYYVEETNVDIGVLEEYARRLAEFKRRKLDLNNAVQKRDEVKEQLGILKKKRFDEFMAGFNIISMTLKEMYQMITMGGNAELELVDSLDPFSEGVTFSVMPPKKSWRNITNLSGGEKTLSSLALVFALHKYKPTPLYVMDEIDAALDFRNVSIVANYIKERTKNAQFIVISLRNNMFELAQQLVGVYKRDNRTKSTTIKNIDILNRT
Nature of the assay: cryo-EM structure; condensin pentamer (Smc2, Smc4, Brn1, Ycs4, Ycg1) with 80-bp dsDNA, 5 mM ADP, 1 mM BeSO4, 10 mM NaF in TNT buffer pH 7.5; separate maps of the clamped head module and of Ycg1-DNA.

The target of assay [2] is T1, Smc4-3xStrepII. Nature of the assay: cryo-EM structure; condensin tetramer (Smc2, Smc4, Brn1, Ycs4) with 80-bp dsDNA, 5 mM ADP, 1 mM BeSO4, 10 mM NaF in TNT buffer (30 mM Tris/HCl, 60 mM NaCl, 1 mM TCEP, 2 mM MgCl2, pH 7.5), 30 min at room temperature; clamped head module, Forms I and II.
The assay “Ycs4” addresses B1. Nature of the assay: cryo-EM structure; condensin pentamer (Smc2, Smc4, Brn1, Ycs4, Ycg1) with 80-bp dsDNA, 5 mM ADP, 1 mM BeSO4, 10 mM NaF in TNT buffer pH 7.5; separate maps of the clamped head module and of Ycg1-DNA.

For B1, the binding result with Smc4-3xStrepII [1] was “binds”.
On to B2, for which the binding result in the assay with Smc4-3xStrepII [2] and with Ycs4 was “binds” each time.
